Experimental data published in patent US20260201008A1, “SECRETIN-DERIVED GLP1R SELECTIVE AGONISTS” (GUBRA A/S, priority 2023, published 2026).
Numbered stars: 1 amine (or outer) side, 2 acyl side, 3 side chain; on linkers, the order of the positions; unused ones are H or OH. Square brackets hold non-standard residues; d marks the D form. Side chains are listed from the residue outwards. Ends that are not written are not given here. * marks the point of attachment. C20 diacid = O=C(O)CCCCCCCCCCCCCCCCCCC(=O)*; γGlu = O=C(O)[C@H](CCC(=O)[*:2])N[*:1]; AEEA = NCCOCCOCC(=O)O; Aib = CC(C)(N)C(=O)O

Columns and labels:
[1] = target: human GLP-1 receptor (hGLP1R) (human, UniProt P43220 24-463); assay: cell-based or functional assay
[2] = target: human secretin receptor (hSCTR) (human, UniProt P47872 23-440); assay: cell-based or functional assay
Chain of human secretin receptor (hSCTR) (P47872 23-440): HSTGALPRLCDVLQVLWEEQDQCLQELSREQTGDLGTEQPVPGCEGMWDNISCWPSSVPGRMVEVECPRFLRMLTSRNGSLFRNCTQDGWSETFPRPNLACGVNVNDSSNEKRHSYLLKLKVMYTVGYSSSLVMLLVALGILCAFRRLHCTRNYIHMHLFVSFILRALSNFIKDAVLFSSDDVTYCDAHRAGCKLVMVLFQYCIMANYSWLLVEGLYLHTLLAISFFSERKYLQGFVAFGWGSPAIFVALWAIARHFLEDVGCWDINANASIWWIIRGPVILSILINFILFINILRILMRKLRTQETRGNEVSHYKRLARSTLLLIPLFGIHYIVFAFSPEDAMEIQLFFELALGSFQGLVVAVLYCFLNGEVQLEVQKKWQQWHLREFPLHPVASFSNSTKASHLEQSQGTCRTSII

| Binder | pEC50 hGLPR1 [1] | pEC50 hSCTR [2] |
| --- | --- | --- |
| H[Aib]EGTFTSDVSELK([AEEA-AEEA-γGlu-C20 diacid])EFAAEQRFLEHLV-NH2 [SEQ ID NO: 31] | 10.4 -log M | 5.2 -log M |
| H[Aib]EGTFTSDVSFLK([AEEA-AEEA-γGlu-C20 diacid])EFAA[Aib]QRFLEHLV-NH2 [SEQ ID NO: 27] | 10 -log M | 5.5 -log M |
| H[Aib]EGTFTSDVSVLK([AEEA-AEEA-γGlu-C20 diacid])ELAAQQRFLEHLV-NH2 [SEQ ID NO: 33] | 10.2 -log M | 6.5 -log M |
| H[Aib]EGTFTSDVSRLK([AEEA-AEEA-γGlu-C20 diacid])ETAAAQRFLEHLV-NH2 [SEQ ID NO: 23] | 10.7 -log M | 6.8 -log M |
| H[Aib]EGTFTSDVSRLK([AEEA-AEEA-γGlu-C20 diacid])ETAAQQRFLEHLV-NH2 [SEQ ID NO: 21] | 10.9 -log M | 6.7 -log M |
| H[Aib]EGTFTSDVSRLK([AEEA-AEEA-γGlu-C20 diacid])EEAAEQRFLEHLV-NH2 [SEQ ID NO: 22] | 10.7 -log M | 6.4 -log M |
| H[Aib]EGTFTSDVSRLK([AEEA-AEEA-γGlu-C20 diacid])ETAAEQRFLEHLV-NH2 [SEQ ID NO: 34] | 10.6 -log M | 6.4 -log M |
| H[Aib]EGTFTSDVSYLK([AEEA-AEEA-γGlu-C20 diacid])ETAATQRFLEHLV-NH2 [SEQ ID NO: 4] | 11.1 -log M | 7 -log M |
| H[Aib]EGTFTSDVSRLK([AEEA-AEEA-γGlu-C20 diacid])EFAAQQRFLEHLV-NH2 [SEQ ID NO: 24] | 10.3 -log M | 6.8 -log M |
| H[Aib]EGTFTSDVSTLK([AEEA-AEEA-γGlu-C20 diacid])E[Aib]AA[Aib]QRFLEHLV-NH2 [SEQ ID NO: 32] | 10.6 -log M | 6.2 -log M |
| H[Aib]EGTFTSDVSRLK([AEEA-AEEA-γGlu-C20 diacid])ELAAQQRFLEHLV-NH2 [SEQ ID NO: 3] | 10.8 -log M | 7.1 -log M |
| H[Aib]EGTFTSDVSVLK([AEEA-AEEA-γGlu-C20 diacid])EEAAAQRFLEHLV-NH2 [SEQ ID NO: 28] | 10.7 -log M | 5.9 -log M |
| H[Aib]EGTFTSDVSRLK([AEEA-AEEA-γGlu-C20 diacid])ETAATQRFLEHLV-NH2 [SEQ ID NO: 26] | 10.9 -log M | 7.2 -log M |
| H[Aib]EGTFTSDVSYLK([AEEA-AEEA-γGlu-C20 diacid])EEAATQRFLEHLV-NH2 [SEQ ID NO: 30] | 10.9 -log M | 6.6 -log M |
| H[Aib]EGTFTSDVSVLK([AEEA-AEEA-γGlu-C20 diacid])EFAAAQRFLEHLV-NH2 [SEQ ID NO: 29] | 10 -log M | 6.1 -log M |
| H[Aib]EGTFTSDVSFLK([AEEA-AEEA-γGlu-C20 diacid])ETAA[Aib]QRFLEHLV-NH2 [SEQ ID NO: 25] | 9 -log M | 5.1 -log M |

Continued, values first:

| pEC50 hGLPR1 [1] | pEC50 hSCTR [2] | Binder |
| --- | --- | --- |
| 11.1 -log M | 6.9 -log M | H[Aib]EGTFTSDVSVLK([AEEA-AEEA-γGlu-C20 diacid])ETAAQQRFLEHLV-NH2 [SEQ ID NO: 41] |
| 10.8 -log M | 6.5 -log M | H[Aib]EGTFTSDVSTLK([AEEA-AEEA-γGlu-C20 diacid])EEAAQQRFLEHLV-NH2 [SEQ ID NO: 39] |
| 10.9 -log M | 5.7 -log M | H[Aib]EGTFTSDVSFLK([AEEA-AEEA-γGlu-C20 diacid])EEAA[Aib]QRFLEHLV-NH2 [SEQ ID NO: 37] |
| 10.9 -log M | 7.9 -log M | H[Aib]EGTFTSDYSYLLEGAALQRFIQWLV-NH2 (N-terminus assumed; SMILES CC[C@H](C)[C@H](NC(=O)[C@H](Cc1ccccc1)NC(=O)[C@H](CCCNC(=N)N)NC(=O)[C@H](CCC(N)=O)NC(=O)[C@H](CC(C)C)NC(=O)[C@H](C)NC(=O)[C@H](C)NC(=O)CNC(=O)[C@H](CCC(=O)O)NC(=O)[C@H](CC(C)C)NC(=O)[C@H](CC(C)C)NC(=O)[C@H](Cc1ccc(O)cc1)NC(=O)[C@H](CO)NC(=O)[C@H](Cc1ccc(O)cc1)NC(=O)[C@H](CC(=O)O)NC(=O)[C@H](CO)NC(=O)[C@@H](NC(=O)[C@H](Cc1ccccc1)NC(=O)[C@@H](NC(=O)CNC(=O)[C@H](CCC(=O)O)NC(=O)C(C)(C)NC(=O)[C@@H](N)Cc1c[nH]cn1)[C@@H](C)O)[C@@H](C)O)C(=O)N[C@@H](CCC(N)=O)C(=O)N[C@@H](Cc1c[nH]c2ccccc12)C(=O)N[C@@H](CC(C)C)C(=O)N[C@H](C(N)=O)C(C)C) [SEQ ID NO: 201] |
| 10.8 -log M | 6.6 -log M | H[Aib]EGTFTSDVSYLK([AEEA-AEEA-γGlu-C20 diacid])EEAAQQRFLEHLV-NH2 [SEQ ID NO: 47] |
| 11 -log M | 6.5 -log M | H[Aib]EGTFTSDVSTLK([AEEA-AEEA-γGlu-C20 diacid])E[Aib]AAAQRFLEHLV-NH2 [SEQ ID NO: 43] |
| 10.8 -log M | 5.5 -log M | H[Aib]EGTFTSDVSTLK([AEEA-AEEA-γGlu-C20 diacid])ETAAEQRFLEHLV-NH2 [SEQ ID NO: 42] |
| 10.5 -log M | 6.5 -log M | H[Aib]EGTFTSDVSELK([AEEA-AEEA-γGlu-C20 diacid])ELAAEQRFLEHLV-NH2 [SEQ ID NO: 36] |
| 10.7 -log M | 6.4 -log M | H[Aib]EGTFTSDVSVLK([AEEA-AEEA-γGlu-C20 diacid])E[Aib]AAQQRFLEHLV-NH2 [SEQ ID NO: 40] |
| 10.7 -log M | 8.1 -log M | H[Aib]EGTFTSDYSWLLEGAALQRFIQWLV-NH2 (N-terminus assumed; SMILES CC[C@H](C)[C@H](NC(=O)[C@H](Cc1ccccc1)NC(=O)[C@H](CCCNC(=N)N)NC(=O)[C@H](CCC(N)=O)NC(=O)[C@H](CC(C)C)NC(=O)[C@H](C)NC(=O)[C@H](C)NC(=O)CNC(=O)[C@H](CCC(=O)O)NC(=O)[C@H](CC(C)C)NC(=O)[C@H](CC(C)C)NC(=O)[C@H](Cc1c[nH]c2ccccc12)NC(=O)[C@H](CO)NC(=O)[C@H](Cc1ccc(O)cc1)NC(=O)[C@H](CC(=O)O)NC(=O)[C@H](CO)NC(=O)[C@@H](NC(=O)[C@H](Cc1ccccc1)NC(=O)[C@@H](NC(=O)CNC(=O)[C@H](CCC(=O)O)NC(=O)C(C)(C)NC(=O)[C@@H](N)Cc1c[nH]cn1)[C@@H](C)O)[C@@H](C)O)C(=O)N[C@@H](CCC(N)=O)C(=O)N[C@@H](Cc1c[nH]c2ccccc12)C(=O)N[C@@H](CC(C)C)C(=O)N[C@H](C(N)=O)C(C)C) [SEQ ID NO: 200] |
| 10.7 -log M | 5.7 -log M | H[Aib]EGTFTSDVSELK([AEEA-AEEA-γGlu-C20 diacid])ETAA[Aib]QRFLEHLV-NH2 [SEQ ID NO: 45] |
| 10.8 -log M | 6.1 -log M | H[Aib]EGTFTSDVSVLK([AEEA-AEEA-γGlu-C20 diacid])EEAA[Aib]QRFLEHLV-NH2 [SEQ ID NO: 35] |
| 10.5 -log M | 5.4 -log M | H[Aib]EGTFTSDVSFLK([AEEA-AEEA-γGlu-C20 diacid])ETAAAQRFLEHLV-NH2 [SEQ ID NO: 44] |
| 10.4 -log M | 7.4 -log M | H[Aib]EGTFTSDYSFLLEGAALQRFIQWLV-NH2 (N-terminus assumed; SMILES CC[C@H](C)[C@H](NC(=O)[C@H](Cc1ccccc1)NC(=O)[C@H](CCCNC(=N)N)NC(=O)[C@H](CCC(N)=O)NC(=O)[C@H](CC(C)C)NC(=O)[C@H](C)NC(=O)[C@H](C)NC(=O)CNC(=O)[C@H](CCC(=O)O)NC(=O)[C@H](CC(C)C)NC(=O)[C@H](CC(C)C)NC(=O)[C@H](Cc1ccccc1)NC(=O)[C@H](CO)NC(=O)[C@H](Cc1ccc(O)cc1)NC(=O)[C@H](CC(=O)O)NC(=O)[C@H](CO)NC(=O)[C@@H](NC(=O)[C@H](Cc1ccccc1)NC(=O)[C@@H](NC(=O)CNC(=O)[C@H](CCC(=O)O)NC(=O)C(C)(C)NC(=O)[C@@H](N)Cc1c[nH]cn1)[C@@H](C)O)[C@@H](C)O)C(=O)N[C@@H](CCC(N)=O)C(=O)N[C@@H](Cc1c[nH]c2ccccc12)C(=O)N[C@@H](CC(C)C)C(=O)N[C@H](C(N)=O)C(C)C) [SEQ ID NO: 202] |
| 10.5 -log M | 6 -log M | H[Aib]EGTFTSDVSFLK([AEEA-AEEA-γGlu-C20 diacid])EEAASQRFLEHLV-NH2 [SEQ ID NO: 38] |
| 10.3 -log M | 5.4 -log M | H[Aib]EGTFTSDVSYLK([AEEA-AEEA-γGlu-C20 diacid])EFAA[Aib]QRFLEHLV-NH2 [SEQ ID NO: 46] |
